Source: patent US20150344570A1 (published 2015)

Experiments:
[1] = biological target: T1, FcγRIa extracellular domain with C-terminal His tag (human, UniProt P12314 16-292); test: SPR; He/Con_1a divided by He/Con_2b (FcγRIa against FcγRIIb)
T1 construct: extracellular domain; soluble analyte in Biacore; also called FcgRI; not shown: His tag at the C terminus
Description: The heterodimerized antibodies He Abs in which one of the H chains was introduced with an alteration were assayed for their binding activities to each activating FcγR and inhibitory FcγR according to the method described in Example 4. […] The activating FcγRs in FIGS. 26, 27, 28, and 29 are FcγRIa, FcγRIIa (R), FcγRIIa (H), and FcγRIIIa, respectively.
Analysis of interaction between objective antibody and the FcγR was carried out using Biacore T100 (GE Healthcare). HBS-EP+ (GE Healthcare) was used as the running buffer, and the measurement temperature was set to 25° C. Chips produced by immobilizing the antigen peptide by the amine coupling method to a Series S Sencor Chip CM5 (GE Healthcare), or alternatively, chips produced by allowing preliminarily biotinylated antigen peptides to interact with and immobilize onto a Series S Sensor Chip SA (certified) (GE Healthcare) were used. Antibodies of interest were captured onto an antigen peptide-immobilized chip, and allowed to interact to each FcγR diluted with running buffer. To regenerate and repeatedly use the chip, the antibodies captured on the chip were washed off by reacting 10 mM glycine-HCl, pH 1.5.

[2] = biological target: T2, FcγRIIb extracellular domain with C-terminal His tag (human, UniProt P31994 43-217); test: SPR, binding relative to GpH7-A5/GpH7-B3/GpL16-k0 = 100
T2 construct: extracellular domain; soluble analyte in Biacore; also called FcgRIIb; not shown: His tag at the C terminus
T2 sequence (looked up): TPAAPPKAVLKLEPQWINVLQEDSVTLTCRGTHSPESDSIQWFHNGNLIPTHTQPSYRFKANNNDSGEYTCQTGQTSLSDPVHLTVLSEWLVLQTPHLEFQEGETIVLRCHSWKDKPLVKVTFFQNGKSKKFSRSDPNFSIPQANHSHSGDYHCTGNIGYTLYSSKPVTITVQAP

[3] = biological target: T1, FcγRIa extracellular domain with …; test: as above

T1 sequence (P12314 16-292): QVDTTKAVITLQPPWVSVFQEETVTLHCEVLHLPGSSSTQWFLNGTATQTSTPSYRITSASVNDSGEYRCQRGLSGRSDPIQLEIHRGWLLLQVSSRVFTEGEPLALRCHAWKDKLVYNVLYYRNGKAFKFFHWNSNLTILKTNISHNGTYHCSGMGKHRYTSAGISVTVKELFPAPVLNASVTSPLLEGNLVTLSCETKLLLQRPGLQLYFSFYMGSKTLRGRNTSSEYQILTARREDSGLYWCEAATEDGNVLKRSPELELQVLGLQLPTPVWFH

B1: GpH7-A5/GpH7-B3 variant D270_01G/GpL16-k0 (antibody, human IgG1, kappa)
heavy 1: not shown
heavy 2: not shown
light: DIVMTQSPLSLPVTPGEPASISCQASESLVHSNRNTYLHWYLQKPGQSPQLLIYKVSNRFSGVPDRFSGSGSGTDFTLKISRVEAEDVGVYYCSQNTHVPPTFGQGTKVEIERTVAAPSVFIFPPSDEQLKSGTASVVCLLNNFYPREAKVQWKVDNALQSGNSQESVTEQDSKDSTYSLSSTLTLSKADYEKHKVYACEVTHQGLSSPVTKSFNRGEC
notes: change in the GpH7-B3 H chain only; also called He Ab
In the case of B1, the “He_1a/2b (Ia/IIb)” value [1] is reported as 2.5 ratio, the He/Con_2b [2] is reported as 30.5 % of control and the He/Con_1a [3] is reported as 76.3 % of control.

B2: GpH7-A5/GpH7-B3 variant D270_16H/GpL16-k0 (antibody, human IgG1, kappa)
heavy 1: not shown
heavy 2: not shown
light: DIVMTQSPLSLPVTPGEPASISCQASESLVHSNRNTYLHWYLQKPGQSPQLLIYKVSNRFSGVPDRFSGSGSGTDFTLKISRVEAEDVGVYYCSQNTHVPPTFGQGTKVEIERTVAAPSVFIFPPSDEQLKSGTASVVCLLNNFYPREAKVQWKVDNALQSGNSQESVTEQDSKDSTYSLSSTLTLSKADYEKHKVYACEVTHQGLSSPVTKSFNRGEC
notes: as for B1
With B2 the “He_1a/2b (Ia/IIb)” value [1] was 1.4 ratio, the He/Con_2b [2] was 47.2 % of control and the He/Con_1a [3] was 66 % of control.

B3: GpH7-A5/GpH7-B3 variant D270_15Y/GpL16-k0 (antibody, human IgG1, kappa)
heavy 1: not shown
heavy 2: not shown
light: DIVMTQSPLSLPVTPGEPASISCQASESLVHSNRNTYLHWYLQKPGQSPQLLIYKVSNRFSGVPDRFSGSGSGTDFTLKISRVEAEDVGVYYCSQNTHVPPTFGQGTKVEIERTVAAPSVFIFPPSDEQLKSGTASVVCLLNNFYPREAKVQWKVDNALQSGNSQESVTEQDSKDSTYSLSSTLTLSKADYEKHKVYACEVTHQGLSSPVTKSFNRGEC
notes: as for B1
With B3 the “He_1a/2b (Ia/IIb)” value [1] was 1.53 ratio, the He/Con_2b [2] was 44.9 % of control and the He/Con_1a [3] was 68.5 % of control.

B4: GpH7-A5/GpH7-B3 variant D270_11K/GpL16-k0 (antibody, human IgG1, kappa)
heavy 1: not shown
heavy 2: not shown
light: DIVMTQSPLSLPVTPGEPASISCQASESLVHSNRNTYLHWYLQKPGQSPQLLIYKVSNRFSGVPDRFSGSGSGTDFTLKISRVEAEDVGVYYCSQNTHVPPTFGQGTKVEIERTVAAPSVFIFPPSDEQLKSGTASVVCLLNNFYPREAKVQWKVDNALQSGNSQESVTEQDSKDSTYSLSSTLTLSKADYEKHKVYACEVTHQGLSSPVTKSFNRGEC
notes: as for B1
For B4, the “He_1a/2b (Ia/IIb)” value [1] was 2.88 ratio, the He/Con_2b [2] was 20.3 % of control and the He/Con_1a [3] was 58.4 % of control.

B5: GpH7-A5/GpH7-B3 variant D270_06M/GpL16-k0 (antibody, human IgG1, kappa)
heavy 1: not shown
heavy 2: not shown
light: DIVMTQSPLSLPVTPGEPASISCQASESLVHSNRNTYLHWYLQKPGQSPQLLIYKVSNRFSGVPDRFSGSGSGTDFTLKISRVEAEDVGVYYCSQNTHVPPTFGQGTKVEIERTVAAPSVFIFPPSDEQLKSGTASVVCLLNNFYPREAKVQWKVDNALQSGNSQESVTEQDSKDSTYSLSSTLTLSKADYEKHKVYACEVTHQGLSSPVTKSFNRGEC
notes: as for B1
In the case of B5, the “He_1a/2b (Ia/IIb)” value [1] is reported as 1.64 ratio, the He/Con_2b [2] is reported as 48.2 % of control and the He/Con_1a [3] is reported as 78.8 % of control.

B6: GpH7-A5/GpH7-B3 variant D270_04F/GpL16-k0 (antibody, human IgG1, kappa)
heavy 1: not shown
heavy 2: not shown
light: DIVMTQSPLSLPVTPGEPASISCQASESLVHSNRNTYLHWYLQKPGQSPQLLIYKVSNRFSGVPDRFSGSGSGTDFTLKISRVEAEDVGVYYCSQNTHVPPTFGQGTKVEIERTVAAPSVFIFPPSDEQLKSGTASVVCLLNNFYPREAKVQWKVDNALQSGNSQESVTEQDSKDSTYSLSSTLTLSKADYEKHKVYACEVTHQGLSSPVTKSFNRGEC
notes: as for B1
For B6, the “He_1a/2b (Ia/IIb)” value [1] was 1.47 ratio, the He/Con_2b [2] was 53.1 % of control and the He/Con_1a [3] was 78.1 % of control.

B7: GpH7-A5/GpH7-B3 variant D270_05P/GpL16-k0 (antibody, human IgG1, kappa)
heavy 1: not shown
heavy 2: not shown
light: DIVMTQSPLSLPVTPGEPASISCQASESLVHSNRNTYLHWYLQKPGQSPQLLIYKVSNRFSGVPDRFSGSGSGTDFTLKISRVEAEDVGVYYCSQNTHVPPTFGQGTKVEIERTVAAPSVFIFPPSDEQLKSGTASVVCLLNNFYPREAKVQWKVDNALQSGNSQESVTEQDSKDSTYSLSSTLTLSKADYEKHKVYACEVTHQGLSSPVTKSFNRGEC
notes: as for B1
For B7, the “He_1a/2b (Ia/IIb)” value [1] was 4.81 ratio, the He/Con_2b [2] was 13.9 % of control and the He/Con_1a [3] was 67.1 % of control.

B8: GpH7-A5/GpH7-B3 variant D270_03V/GpL16-k0 (antibody, human IgG1, kappa)
heavy 1: not shown
heavy 2: not shown
light: DIVMTQSPLSLPVTPGEPASISCQASESLVHSNRNTYLHWYLQKPGQSPQLLIYKVSNRFSGVPDRFSGSGSGTDFTLKISRVEAEDVGVYYCSQNTHVPPTFGQGTKVEIERTVAAPSVFIFPPSDEQLKSGTASVVCLLNNFYPREAKVQWKVDNALQSGNSQESVTEQDSKDSTYSLSSTLTLSKADYEKHKVYACEVTHQGLSSPVTKSFNRGEC
notes: as for B1
With B8 the “He_1a/2b (Ia/IIb)” value [1] was 1.97 ratio, the He/Con_2b [2] was 39.5 % of control and the He/Con_1a [3] was 77.9 % of control.
